*: point of attachment. Palmitoyl = CCCCCCCCCCCCCCCC(=O)*
biological target: FGFR2 Kinase (Homo sapiens, UniProt P21802); test: FGFR2 kinase inhibition; assay type: biochemical; details: percent inhibition of control enzyme activity; test concentration not given
Procedure: [The source words this procedure for another target and reports this target under the same test.] Evaluation of the effects of the dodecapeptides of the invention on the activity of the human FGFR1 kinase were quantified by measuring the phosphorylation of the substrate Ulight-CAGAGAIETDKEYYTVKD (JAK1) using a human recombinant enzyme expressed in insect cells and the LANCE® detection method using the protocol described below:
The peptide to be tested, the reference compound or water (control) are mixed with the enzyme (0.252 ng) in a buffer containing 40 mM Hepes/Tris (pH 7.4), 0.8 mM EGTA/Tris, 8 mM MgCl2, 1.6 mM DTT and 0.008% Tween 20 (For control basal measurements, the enzyme is omitted from the reaction mixture). Thereafter, the reaction is initiated by adding 100 nM of the substrate Ulight-CAGAGAIETDKEYYTVKD (SEQ ID NO: 13) (JAK-1 peptide) and 100 μM ATP, and the mixture is incubated for 60 min at room temperature. Following incubation, the reaction is stopped by adding 13 mM EDTA. After 5 min, the anti-phospho-PT66 antibody labeled with europium chelate (EU-W1024-labeled Anti-Phosphotyrosine Antibody PT66, from Perkin Elmer) is added. After 60 more min, the fluorescence transfer is measured at λex=337 nm, λem=620 nm and λem=665 nm using a microplate reader (Envision, Perkin Elmer).
The enzyme activity is determined by dividing the signal measured at 665 nm by that measured at 620 nm (ratio). The results are expressed as a percent inhibition of the control enzyme activity.
The standard inhibitory reference compound is staurosporine, which is tested in each experiment at several concentrations to obtain an inhibition curve from which its IC50 value is calculated.
Results showing an inhibition (or stimulation for assays run in basal conditions) higher than 20% are considered to represent significant effects of the peptides of the invention.

Chain of FGFR2 Kinase (P21802 22-821): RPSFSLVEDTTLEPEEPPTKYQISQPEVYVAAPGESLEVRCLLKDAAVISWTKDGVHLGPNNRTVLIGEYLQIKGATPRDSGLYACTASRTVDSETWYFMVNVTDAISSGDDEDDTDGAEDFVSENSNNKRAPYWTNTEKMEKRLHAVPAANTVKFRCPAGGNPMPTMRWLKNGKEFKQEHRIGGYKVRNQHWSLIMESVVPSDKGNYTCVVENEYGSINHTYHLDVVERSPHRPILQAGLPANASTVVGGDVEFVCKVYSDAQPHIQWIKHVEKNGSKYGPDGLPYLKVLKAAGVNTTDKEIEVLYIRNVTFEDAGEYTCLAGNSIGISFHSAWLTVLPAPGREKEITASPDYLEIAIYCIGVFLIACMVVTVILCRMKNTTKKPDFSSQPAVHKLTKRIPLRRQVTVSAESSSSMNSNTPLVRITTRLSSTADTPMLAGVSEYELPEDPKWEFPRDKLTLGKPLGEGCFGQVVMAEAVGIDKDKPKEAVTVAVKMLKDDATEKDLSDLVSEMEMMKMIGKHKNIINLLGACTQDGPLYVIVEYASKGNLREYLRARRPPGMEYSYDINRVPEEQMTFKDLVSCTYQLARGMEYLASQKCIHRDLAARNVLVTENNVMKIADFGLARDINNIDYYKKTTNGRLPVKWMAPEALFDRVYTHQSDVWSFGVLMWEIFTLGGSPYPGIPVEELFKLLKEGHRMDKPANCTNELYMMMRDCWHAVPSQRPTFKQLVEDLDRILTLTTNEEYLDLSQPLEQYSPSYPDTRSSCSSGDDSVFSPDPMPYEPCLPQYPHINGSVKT

Compound | FGFR2 Kinase % Inhibition [%]
Palm-Lys-Ala-Asn-Leu-Pro-Leu-Gly-Asn-Tyr-Lys-Lys-Pro-NH2 (Palmitoyl-KANLPLGNYKKP-NH2; SMILES CCCCCCCCCCCCCCCC(=O)N[C@@H](CCCCN)C(=O)N[C@@H](C)C(=O)N[C@@H](CC(N)=O)C(=O)N[C@@H](CC(C)C)C(=O)N1CCC[C@H]1C(=O)N[C@@H](CC(C)C)C(=O)NCC(=O)N[C@@H](CC(N)=O)C(=O)N[C@@H](Cc1ccc(O)cc1)C(=O)N[C@@H](CCCCN)C(=O)N[C@@H](CCCCN)C(=O)N1CCC[C@H]1C(N)=O) [Peptide 2] | 96.3
Palm-Lys-Phe-Asn-Leu-Pro-Leu-Gly-Asn-Tyr-Ala-Lys-Pro-NH2 (Palmitoyl-KFNLPLGNYAKP-NH2; SMILES CCCCCCCCCCCCCCCC(=O)N[C@@H](CCCCN)C(=O)N[C@@H](Cc1ccccc1)C(=O)N[C@@H](CC(N)=O)C(=O)N[C@@H](CC(C)C)C(=O)N1CCC[C@H]1C(=O)N[C@@H](CC(C)C)C(=O)NCC(=O)N[C@@H](CC(N)=O)C(=O)N[C@@H](Cc1ccc(O)cc1)C(=O)N[C@@H](C)C(=O)N[C@@H](CCCCN)C(=O)N1CCC[C@H]1C(N)=O) [Peptide 10] | 93.4
Palm-Lys-Phe-Asn-Ala-Pro-Leu-Gly-Asn-Tyr-Lys-Lys-Pro-NH2 (Palmitoyl-KFNAPLGNYKKP-NH2; SMILES CCCCCCCCCCCCCCCC(=O)N[C@@H](CCCCN)C(=O)N[C@@H](Cc1ccccc1)C(=O)N[C@@H](CC(N)=O)C(=O)N[C@@H](C)C(=O)N1CCC[C@H]1C(=O)N[C@@H](CC(C)C)C(=O)NCC(=O)N[C@@H](CC(N)=O)C(=O)N[C@@H](Cc1ccc(O)cc1)C(=O)N[C@@H](CCCCN)C(=O)N[C@@H](CCCCN)C(=O)N1CCC[C@H]1C(N)=O) [Peptide 4] | 87.5
Palm-Lys-Phe-Asn-Leu-Pro-Leu-Gly-Ala-Tyr-Lys-Lys-Pro-NH2 (Palmitoyl-KFNLPLGAYKKP-NH2; SMILES CCCCCCCCCCCCCCCC(=O)N[C@@H](CCCCN)C(=O)N[C@@H](Cc1ccccc1)C(=O)N[C@@H](CC(N)=O)C(=O)N[C@@H](CC(C)C)C(=O)N1CCC[C@H]1C(=O)N[C@@H](CC(C)C)C(=O)NCC(=O)N[C@@H](C)C(=O)N[C@@H](Cc1ccc(O)cc1)C(=O)N[C@@H](CCCCN)C(=O)N[C@@H](CCCCN)C(=O)N1CCC[C@H]1C(N)=O) [Peptide 8] | 98.8
Palm-Lys-Phe-Asn-Leu-Pro-Leu-Gly-Asn-Ala-Lys-Lys-Pro-NH2 (Palmitoyl-KFNLPLGNAKKP-NH2; SMILES CCCCCCCCCCCCCCCC(=O)N[C@@H](CCCCN)C(=O)N[C@@H](Cc1ccccc1)C(=O)N[C@@H](CC(N)=O)C(=O)N[C@@H](CC(C)C)C(=O)N1CCC[C@H]1C(=O)N[C@@H](CC(C)C)C(=O)NCC(=O)N[C@@H](CC(N)=O)C(=O)N[C@@H](C)C(=O)N[C@@H](CCCCN)C(=O)N[C@@H](CCCCN)C(=O)N1CCC[C@H]1C(N)=O) [Peptide 9] | 99.4
Palm-Lys-Phe-Asn-Leu-Pro-Leu-Gly-Asn-Tyr-Lys-Ala-Pro-NH2 (Palmitoyl-KFNLPLGNYKAP-NH2; SMILES CCCCCCCCCCCCCCCC(=O)N[C@@H](CCCCN)C(=O)N[C@@H](Cc1ccccc1)C(=O)N[C@@H](CC(N)=O)C(=O)N[C@@H](CC(C)C)C(=O)N1CCC[C@H]1C(=O)N[C@@H](CC(C)C)C(=O)NCC(=O)N[C@@H](CC(N)=O)C(=O)N[C@@H](Cc1ccc(O)cc1)C(=O)N[C@@H](CCCCN)C(=O)N[C@@H](C)C(=O)N1CCC[C@H]1C(N)=O) [Peptide 11] | 89.9
Palm-Lys-Phe-Asn-Leu-Pro-Leu-Gly-Asn-Tyr-Lys-Lys-Pro-NH2 (Palmitoyl-KFNLPLGNYKKP-NH2; SMILES CCCCCCCCCCCCCCCC(=O)N[C@@H](CCCCN)C(=O)N[C@@H](Cc1ccccc1)C(=O)N[C@@H](CC(N)=O)C(=O)N[C@@H](CC(C)C)C(=O)N1CCC[C@H]1C(=O)N[C@@H](CC(C)C)C(=O)NCC(=O)N[C@@H](CC(N)=O)C(=O)N[C@@H](Cc1ccc(O)cc1)C(=O)N[C@@H](CCCCN)C(=O)N[C@@H](CCCCN)C(=O)N1CCC[C@H]1C(N)=O) [Peptide 1] | 95.4
Palm-Lys-Phe-Asn-Leu-Pro-Ala-Gly-Asn-Tyr-Lys-Lys-Pro-NH2 (Palmitoyl-KFNLPAGNYKKP-NH2; SMILES CCCCCCCCCCCCCCCC(=O)N[C@@H](CCCCN)C(=O)N[C@@H](Cc1ccccc1)C(=O)N[C@@H](CC(N)=O)C(=O)N[C@@H](CC(C)C)C(=O)N1CCC[C@H]1C(=O)N[C@@H](C)C(=O)NCC(=O)N[C@@H](CC(N)=O)C(=O)N[C@@H](Cc1ccc(O)cc1)C(=O)N[C@@H](CCCCN)C(=O)N[C@@H](CCCCN)C(=O)N1CCC[C@H]1C(N)=O) [Peptide 6] | 98.8
Palm-Lys-Phe-Asn-Leu-Ala-Leu-Gly-Asn-Tyr-Lys-Lys-Pro-NH2 (Palmitoyl-KFNLALGNYKKP-NH2; SMILES CCCCCCCCCCCCCCCC(=O)N[C@@H](CCCCN)C(=O)N[C@@H](Cc1ccccc1)C(=O)N[C@@H](CC(N)=O)C(=O)N[C@@H](CC(C)C)C(=O)N[C@@H](C)C(=O)N[C@@H](CC(C)C)C(=O)NCC(=O)N[C@@H](CC(N)=O)C(=O)N[C@@H](Cc1ccc(O)cc1)C(=O)N[C@@H](CCCCN)C(=O)N[C@@H](CCCCN)C(=O)N1CCC[C@H]1C(N)=O) [Peptide 5] | 91.1
Palm-Lys-Phe-Asn-Leu-Pro-Leu-Ala-Asn-Tyr-Lys-Lys-Pro-NH2 (Palmitoyl-KFNLPLANYKKP-NH2; SMILES CCCCCCCCCCCCCCCC(=O)N[C@@H](CCCCN)C(=O)N[C@@H](Cc1ccccc1)C(=O)N[C@@H](CC(N)=O)C(=O)N[C@@H](CC(C)C)C(=O)N1CCC[C@H]1C(=O)N[C@@H](CC(C)C)C(=O)N[C@@H](C)C(=O)N[C@@H](CC(N)=O)C(=O)N[C@@H](Cc1ccc(O)cc1)C(=O)N[C@@H](CCCCN)C(=O)N[C@@H](CCCCN)C(=O)N1CCC[C@H]1C(N)=O) [Peptide 7] | 98.4

test system: Human dermal fibroblasts; test: Cytotoxicity assay (MTT) in fibroblasts; assay type: cell-based; details: positive control 0.1% SDS, 48h incubation
Procedure: (§1) Human dermal fibroblasts and human keratinocytes were used. The isolated cells were cultured in DMEM culture medium supplemented with 10% FCS and were incubated at 37° C. for maintenance treatment. Untreated cells were used as negative control. The positive control was 0.1% SDS. The microcapsules as obtained in Example 2 were tested in the DMEM culture medium at 0.03%. These weight percentages refer to the weight of the microcapsule in relation to the total weight. Cells were seeded at 20000 cells per well in a 96-well plate. 24 hours after seeding, cells were incubated under the conditions described above. After 48h of incubation at 37° C., the culture medium was removed and the MTT reagent was added. Cells were incubated 2 hours at 37° C. DMSO was then added and the absorbance of the formed formazan salt was measured at A 570 nm. Lower absorbance values correspond to cells with lower metabolic activity, which correlates with an increased damage and, therefore, with an increased cytotoxic effect. Thus, the amount of living cells is proportional to the amount of formazan produced.

Compound | Fibroblasts % cell viability [%]
CCCCCCCCCCCCOS(=O)(=O)[O-].[Na+] [SDS, Sodium dodecyl sulfate] | 25.0

test system: human keratinocytes; test: Cytotoxicity assay (MTT) in keratinocytes; assay type: cell-based; details: positive control 0.1% SDS, 48h incubation
Procedure: as §1

Compound | Keratinocytes % cell viability [%]
CCCCCCCCCCCCOS(=O)(=O)[O-].[Na+] [SDS, Sodium dodecyl sulfate] | 12

— US20180258140A1, “NEW DODECAPEPTIDES AND MICROCAPSULES FUNCTIONALISED WITH THEM TARGETED TO FIBROBLASTS” (Infinitec Activos, S.L., priority 2015, published 2018)
